Experimental data published in paper PMC12520249 (Nature, 2025).

B1: hGluD2(ΔATD), human GluD2 with the amino-terminal domain deleted (receptor, UniProt O43424-1 24-1007, looked up)
chain: DSIDKKLENNMRGVVLRVVTVLEEPFVMVSENVLGKPKKYQGFSIDVLDALSNYLGFNYEIYVAPDHKYGSPQEDGTWNGLVGELVFKRADIGISALTITPDRENVVDFTTRYMDYSVGVLLRRAEKTVDMFACLAPFDLSLWACIAGTVLLVGLLVYLLNWLNPPRLQMGSMTSTTLYNSMWFVYGSFVQQGGEVPYTTLATRMMMGAWWLFALIVISSYTANLAAFLTITRIESSIQSLQDLSKQTEIPYGTVLDSAVYEHVRMKGLNPFERDSMYSQMWRMINRSNGSENNVLESQAGIQKVKYGNYAFVWDAAVLEYVAINDPDCSFYTIGNTVADRGYGIALQHGSPYRDVFSQRILELQQNGDMDILKHKWWPKNGQCDLYSSVDTKQKGGALDIKSFAGVFCILAAGIVLSCFIAMLETWWNKRKGSRVPSKEDDKEIDLEHLHRRVNSLCTDDDSPHKQFSTSSIDLTPLDIDTLPTRQALEQISDFRNTHITTTTFIPEQIQTLSRTLSAKAASGFTFGNVPEHRTGPFRHRAPNGGFFRSPIKTMSSIPYQPTPTLGLNLGNDPDRGTSI
B2: hGluD2(R710W), human GluD2 with the cerebellar ataxia mutation R710W (receptor, UniProt O43424-1 24-1007, looked up)
chain: DSIIHIGAIFDESAKKDDEVFRTAVGDLNQNEEILQTEKITFSVTFVDGNNPFQAVQEACELMNQGILALVSSIGCTSAGSLQSLADAMHIPHLFIQRSTAGTPRSGCGLTRSNRNDDYTLSVRPPVYLHDVILRVVTEYAWQKFIIFYDSEYDIRGIQEFLDKVSQQGMDVALQKVENNINKMITTLFDTMRIEELNRYRDTLRRAILVMNPATAKSFITEVVETNLVAFDCHWIIINEEINDVDVQELVRRSIGRLTIIRQTFPVPQNISQRCFRGNHRISSTLCDPKDPFAQNMEISNLYIYDTVLLLANAFHKKLEDRKWHSMASLSCIRKNSKPWQGGRSMLETIKKGGVSGLTGELEFGENGGNPNVHFEILGTNYGEELGRGVRKLGCWNPVTGLNGSLTDKKLENNMRGVVLRVVTVLEEPFVMVSENVLGKPKKYQGFSIDVLDALSNYLGFNYEIYVAPDHKYGSPQEDGTWNGLVGELVFKRADIGISALTITPDRENVVDFTTRYMDYSVGVLLRRAEKTVDMFACLAPFDLSLWACIAGTVLLVGLLVYLLNWLNPPRLQMGSMTSTTLYNSMWFVYGSFVQQGGEVPYTTLATRMMMGAWWLFALIVISSYTANLAAFLTITRIESSIQSLQDLSKQTEIPYGTVLDSAVYEHVRMKGLNPFERDSMYSQMWWMINRSNGSENNVLESQAGIQKVKYGNYAFVWDAAVLEYVAINDPDCSFYTIGNTVADRGYGIALQHGSPYRDVFSQRILELQQNGDMDILKHKWWPKNGQCDLYSSVDTKQKGGALDIKSFAGVFCILAAGIVLSCFIAMLETWWNKRKGSRVPSKEDDKEIDLEHLHRRVNSLCTDDDSPHKQFSTSSIDLTPLDIDTLPTRQALEQISDFRNTHITTTTFIPEQIQTLSRTLSAKAASGFTFGNVPEHRTGPFRHRAPNGGFFRSPIKTMSSIPYQPTPTLGLNLGNDPDRGTSI

Biological target: the molecule itself
Assay: cryo-EM structure

Protein | binding result
B1 | binds
B2 | binds
